From paper PMC4045321 (2014)

Target: the molecule itself
Experiment: size exclusion chromatography

B1: eIF2Bα (protein)
chain: MDDKELIEYFKSQMKEDPDMASAVAAIRTLLEFLKRDKGETIQGLRANLTSAIETLCGVDSSVAVSSGGELFLRFISLASLEYSDYSKCKKIMIERGELFLRRISLSRNKIADLCHTFIKDGATILTHAYSRVVLRVLEAAVAAKKRFSVYVTESQPDLSGKKMAKALCHLNVPVTVVLDAAVGYIMEKADLVIVGAEGVVENGGIINKIGTNQMAVCAKAQNKPFYVVAESFKFVRLFPLNQQDVPDKFKYKADTLKVAQTGQDLKEEHPWVDYTAPSLITLLFTDLGVLTPSAVSDELIKLYL
Kd: < 1 nM
